The results in this text go back to US20190040102A1 (CDRD VENTURES, published 2019).

This experiment deals with somatostatin receptor type 2 (SSTR2) (UniProt P30874 1-369). The experiment is described as follows: cell-based or functional assay.

Starred links: 1 amine or outer side, 2 acyl side, 3 side chain; linkers in the order of their positions; H or OH if unused. Positions of bridges follow the written chain, without caps; N, C: chain ends. Non-standard residues stand in square brackets, D forms with d. *: point of attachment. dPhe(4-phenylureido) = D-4-(phenylureido)Phe, O=C(Nc1ccccc1)Nc1ccc(C[C@@H](N[*:1])C(=O)[*:2])cc1; thiocarbamate = -NH-(C=O)-S- bridge between side chains (disulfide isostere); dPhe(4-CONH2) = NC(=O)c1ccc(C[C@@H](N)C(=O)O)cc1; Phe(4-Cl) = N[C@@H](Cc1ccc(Cl)cc1)C(=O)O; dDap = NC[C@@H](N)C(=O)O; Dap = NC[C@H](N)C(=O)O; Hexanoyl = CCCCCC(=O)*

somatostatin receptor type 2 (SSTR2), sequence (P30874 whole entry): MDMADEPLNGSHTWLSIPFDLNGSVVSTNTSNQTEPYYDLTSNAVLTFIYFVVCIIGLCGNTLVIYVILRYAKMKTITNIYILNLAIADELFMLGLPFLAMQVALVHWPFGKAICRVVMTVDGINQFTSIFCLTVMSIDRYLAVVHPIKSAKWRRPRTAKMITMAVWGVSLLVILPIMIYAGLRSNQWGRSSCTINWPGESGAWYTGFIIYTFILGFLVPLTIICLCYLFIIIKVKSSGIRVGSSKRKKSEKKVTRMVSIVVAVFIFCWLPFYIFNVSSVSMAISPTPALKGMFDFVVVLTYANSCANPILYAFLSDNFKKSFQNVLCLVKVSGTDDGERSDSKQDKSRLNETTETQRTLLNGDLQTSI

B1: Compound 56: CH3(CH2)4(CO)-Cpa-cyclo[D-Cys-Tyr-D-Phe(4-carbamoyl)-Lys(Nε-Me)-Thr-Cys]-D-Tyr-NH2 (peptide)
peptide: Hexanoyl-[Phe(4-Cl)][dC]Y[dPhe(4-CONH2)]K(Me)TC[dY]-NH2
modifications: disulfide 2-7
SMILES: CCCCCC(=O)N[C@@H](Cc1ccc(Cl)cc1)C(=O)N[C@@H]1CSSC[C@@H](C(=O)N[C@H](Cc2ccc(O)cc2)C(N)=O)NC(=O)[C@H]([C@@H](C)O)NC(=O)[C@H](CCCCNC)NC(=O)[C@@H](Cc2ccc(C(N)=O)cc2)NC(=O)[C@H](Cc2ccc(O)cc2)NC1=O
Consider B1, for which the “IC50 (PathHunter β-Arrestin, antagonist mode)” value (from here on “IC50”) stood at 1.6 nM.
With H-[Phe(4-Cl)][dDap]Y[dPhe(4-CONH2)]KTC[dY]-NH2 (bridge 2-7 via thiocarbamate) [Compound 60: H-Cpa-cyclo[DDap-Tyr-DPhe(4-CONH2)-Lys-Thr-Cys]-DTyr-NH2] the figure was above 1000 nM.
Consider H-[Phe(4-Cl)][Dap]Y[dPhe(4-CONH2)]KTC[dY]-NH2 (bridge 2-7 via thiocarbamate) [Compound 61: H-Cpa-cyclo[Dap-Tyr-DPhe(4-CONH2)-Lys-Thr-Cys]-DTyr-NH2], for which the “IC50” value was above 1000 nM.

B2: Compound 69: H-Cpa-cyclo[DDap-Tyr-DPhe(4-CONH2)-Lys-Thr-Asp]-DTyr-NH2 (peptide)
peptide: H-[Phe(4-Cl)][dDap]Y[dPhe(4-CONH2)]KTD[dY]-NH2
modifications: lactam 2-7; not fully specified; printed as H-Cpa-cyclo[DDap-Tyr-DPhe(4-CONH2)-Lys-Thr-Asp]-DTyr-NH2
For B2, the “IC50” value is above 1000 nM.
For the molecule H-[Phe(4-Cl)][dC]Y[dPhe(4-CONH2)]K(Me)T[Dap][dY]-NH2 (bridge 2-7 via thiocarbamate) [Compound 63: H-Cpa-cyclo[DCys-Tyr-DPhe(4-CONH2)-Lys(Me)-Thr-Dap]-DTyr-NH2], the “IC50” value is above 1000 nM.

B3: Compound 55: Ac-Gly-Cpa-cyclo[D-Cys-Tyr-D-Phe(4-carbamoyl)-Lys(Nε-Me)-Thr-Cys]-D-Tyr-NH2 (peptide)
peptide: Ac-G[Phe(4-Cl)][dC]Y[dPhe(4-CONH2)]K(Me)TC[dY]-NH2
modifications: disulfide 3-8
SMILES: CNCCCC[C@@H]1NC(=O)[C@@H](Cc2ccc(C(N)=O)cc2)NC(=O)[C@H](Cc2ccc(O)cc2)NC(=O)[C@H](NC(=O)[C@H](Cc2ccc(Cl)cc2)NC(=O)CNC(C)=O)CSSC[C@@H](C(=O)N[C@H](Cc2ccc(O)cc2)C(N)=O)NC(=O)[C@H]([C@@H](C)O)NC1=O
For the molecule B3, the “IC50” value came out at 3.35 nM.
Next, {CH3O2C(CH2)2(CO)}-[Phe(4-Cl)][dC]Y[dPhe(4-CONH2)]K(Me)TC[dY]-NH2 (disulfide 2-7) [Compound 58: CH3O2C(CH2)2(CO)-Cpa-cyclo[D-Cys-Tyr-D-Phe(4-carbamoyl)-Lys(Nε-Me)-Thr-Cys]-D-Tyr-NH2]: 2.36 nM.

B4: Compound 59: H-Cpa-[DCys-Tyr-DPhe(4-CN)-Lys-Thr-Cys]-DTyr-NH2 (peptide)
peptide: XXYXKTCX
HELM: PEPTIDE1{[N[C@@H](Cc1ccc(Cl)cc1)C(=O)[*:2]].[dC].Y.[N#Cc1ccc(C[C@@H](N[*:1])C(=O)[*:2])cc1].K.T.C.[dY].[am]}$PEPTIDE1,PEPTIDE1,2:R3-7:R3$$$V2.0
SMILES: C[C@@H](O)[C@@H]1NC(=O)[C@H](CCCCN)NC(=O)[C@@H](Cc2ccc(C#N)cc2)NC(=O)[C@H](Cc2ccc(O)cc2)NC(=O)[C@H](NC(=O)[C@@H](N)Cc2ccc(Cl)cc2)CSSC[C@@H](C(=O)N[C@H](Cc2ccc(O)cc2)C(N)=O)NC1=O
In the case of B4, the “IC50” value is 39.1 nM.

B5: Compound 70: H-Cpa-cyclo[DDap-Tyr-Xaa4-Lys-Thr-Asp]-DTyr-NH2 (peptide)
peptide: H-[Phe(4-Cl)][dDap]Y[dPhe(4-phenylureido)]KTD[dY]-NH2
modifications: lactam 2-7; not fully specified; printed as H-Cpa-cyclo[DDap-Tyr-Xaa4-Lys-Thr-Asp]-DTyr-NH2
B5: the “IC50” value is above 1000 nM.
For {2‑furoyl}-[Phe(4-Cl)][dC]Y[dPhe(4-CONH2)]K(Me)TC[dY]-NH2 (disulfide 2-7) [Compound 57: (Furan-2-carboxy)-Cpa-cyclo[D-Cys-Tyr-D-Phe(4-carbamoyl)-Lys(Nε-Me)-Thr-Cys]-D-Tyr-NH2], the “IC50” value was 3.65 nM.
Regarding H-[Phe(4-Cl)][dC]Y[dPhe(4-CONH2)]KT[Dap][dY]-NH2 (bridge 2-7 via thiocarbamate) [Compound 62: H-Cpa-cyclo[DCys-Tyr-DPhe(4-CONH2)-Lys-Thr-Dap]-DTyr-NH2], the “IC50” value is above 1000 nM.
